The results in this text go back to patent publication US20060024807.

Data set [1] addresses T1, Known PK substrate sequence PKTPKKAKKL (p34 cdc-kinase substrate).
T1 chain: PKTPKKAKKL

The target in data set [2] is T2, Known PK substrate sequence KKRFSFKKSFKLSGFSFK (protein kinase C substrate).
T2 chain: KKRFSFKKSFKLSGFSFK

For data set [3], the target named is T3, Known PK substrate sequence QKRPSQRSK (protein kinase C substrate).
T3 chain: QKRPSQRSK

For data set [4], the target named is T4, Known PK substrate sequence RRKDLHDDEEDEAMSITA (casein kinase I substrate).
T4 chain: RRKDLHDDEEDEAMSITA

For data set [5], the target named is T5, Known PK substrate sequence PLARTLSVAGLPGK (Ca-/calmodulin-dependent PK substrate).
T5 chain: PLARTLSVAGLPGK

Data set [6] addresses T6, Known PK substrate sequence KKKLPATGDYMNMSPVGD (insulin receptor tyrosine kinase substrate).
T6 chain: KKKLPATGDYMNMSPVGD

For data set [7], the target named is T7, Known PK substrate sequence RRRDDDSDDD (casein kinase II substrate).
T7 chain: RRRDDDSDDD

Data set [8] deals with T8, Known PK substrate sequence SGQLIDSMANSFVGTRS (raf-1 kinase substrate).
T8 chain: SGQLIDSMANSFVGTRS

The target in data set [9] is T9, Known PK substrate sequence LRRASLG (cAMP-dependent protein kinase substrate).
T9 chain: LRRASLG

Data set [10] concerns the target T10, Known PK substrate sequence LMECRNSPVAKT (p42/p44 MAP kinase substrate).
T10 chain: LMECRNSPVAKT

Data set [11] addresses T11, Known PK substrate sequence EAIYAAPFAKKK (abl tyrosine kinase substrate).
T11 chain: EAIYAAPFAKKK

Data set [12] addresses T12, Known PK substrate sequence Ac-SPGRRRRK (cdc2-kinase substrate).
T12 chain: SPGRRRRK

Data set [13] concerns the target T13, Known PK substrate sequence YIYGSFK (c-src tyrosine kinase substrate).
T13 chain: YIYGSFK

Data set [14] deals with T14, Known PK substrate sequence KKKKEEIYFFF (csk tyrosine kinase substrate).
T14 chain: KKKKEEIYFFF

In data set [15] the target is T15, Known PK substrate sequence RKISASEFDRPLR (cGMP-dependent protein kinase substrate).
T15 chain: RKISASEFDRPLR

For data set [16], the target named is T16, Known PK substrate sequence KKALRRQETVDAL (Ca-/calmodulin-dependent PK substrate).
T16 chain: KKALRRQETVDAL

In data set [17] the target is T17, Known PK substrate sequence EAAEAEPAEPSSPAAEAEGA (p42/p44 MAP kinase substrate).
T17 chain: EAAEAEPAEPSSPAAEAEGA

In data set [18] the target is T18, Known PK substrate sequence APRTPGGRR (p42/p44 MAP kinase substrate).
T18 chain: APRTPGGRR

Data set [19] concerns the target T19, Known PK substrate sequence LSSLRASTSKSGGQK (S6 kinase substrate).
T19 chain: LSSLRASTSKSGGQK

Data set [20] concerns the target T20, Known PK substrate sequence KKRPQRATSNVFS (myosin light chain kinase substrate).
T20 chain: KKRPQRATSNVFS

B1: MLSK-1 (Murine Lymph node Stromal cell Kinase 1) (protein)
chain: MESVALLQRPSQAPSASALASESARPLADGLIKSPKPLMKKQAVKRHHHKHNLRHRYEFLETLGKGTYGKVKKARESSGRLVAIKSIRKDKIKDEQDLLHIRREIEIMSSLNHPHIIAIHEVFENSSKIVIVMEYASRGDLYDYISERPRLSERDARHFFRQIVSALHYCHQNGIVHRDLKLENILLDANGNIKIADFGLSNLYHKGKFLQTFCGSPLYASPEIVNGKPYVGPEVDSWSLGVLLYILVHGTMPFDGQDHKTLVKQISNGAYREPPKPSDACGLIRWLLMVNPTRRATLEDVASHWWVNWGYTTGVGEQEALREGGHPSGDFGRASMADWLRRSSRPLLENGAKVCSFFKQHVPGGGSTVPGLERQHSLKKSRKENDMAQNLQGDPAEDTSSRPGKSSLKLPKGILKKKSSTSSGEVQEDPQELRPVPDTPGQPVPAVSLLPRKGILKKSRQRESGYYSSPEPSESGELLDASDVFVSGDPVEQKSPQASGLLLHRKGILKLNGKFSRTALEGTTPSTFGSLDQLASSHPAARPSRPSGAVSEDSILSSESFDQLDLPERLPETPLRGCVSVDNLRGLEQPPSEGLKRWWQESLGDSCFSLTDCQEVTAAYRQALGICSKLS
As to B1, the Phosphorylation by MLSK-1 (% of max.) in data set [1] was 82 % of max; in data set [2], 100 % of max; in data set [3], 75 % of max; in data set [4], 14.1 % of max; in [5], 10.3 % of max; in data set [6], 33.7 % of max. Besides, the Phosphorylation by MLSK-1 (% of max.) in data set [7] was 17.6 % of max; in data set [8], 43.1 % of max; in data set [9], 65.9 % of max; in data set [10], 3.8 % of max; in data set [11], 69.3 % of max; in data set [12], 94.8 % of max. Also, the Phosphorylation by MLSK-1 (% of max.) in data set [13] was 66.6 % of max; in data set [14] it was 82.1 % of max; in data set [15] it was 62.2 % of max; in data set [16], 20.9 % of max; in data set [17], 0 % of max; in data set [18], 88.6 % of max. Besides, the Phosphorylation by MLSK-1 (% of max.) was 66.6 % of max in [19] and 72 % of max in [20].
